Laboratory results published in patent publication US20040235062A1, “Method of analyzing protein occurring in cell or substance interacting with the protein” (priority 2002, published 2004).

Molecular target: T1, GC-A receptors (Homo sapiens, UniProt P16066)
T1 construct: expressed in transfected cells; host or cells: CHO/GC-A cells (Chinese hamster ovary), membrane fraction
T1 sequence (P16066 33-1061): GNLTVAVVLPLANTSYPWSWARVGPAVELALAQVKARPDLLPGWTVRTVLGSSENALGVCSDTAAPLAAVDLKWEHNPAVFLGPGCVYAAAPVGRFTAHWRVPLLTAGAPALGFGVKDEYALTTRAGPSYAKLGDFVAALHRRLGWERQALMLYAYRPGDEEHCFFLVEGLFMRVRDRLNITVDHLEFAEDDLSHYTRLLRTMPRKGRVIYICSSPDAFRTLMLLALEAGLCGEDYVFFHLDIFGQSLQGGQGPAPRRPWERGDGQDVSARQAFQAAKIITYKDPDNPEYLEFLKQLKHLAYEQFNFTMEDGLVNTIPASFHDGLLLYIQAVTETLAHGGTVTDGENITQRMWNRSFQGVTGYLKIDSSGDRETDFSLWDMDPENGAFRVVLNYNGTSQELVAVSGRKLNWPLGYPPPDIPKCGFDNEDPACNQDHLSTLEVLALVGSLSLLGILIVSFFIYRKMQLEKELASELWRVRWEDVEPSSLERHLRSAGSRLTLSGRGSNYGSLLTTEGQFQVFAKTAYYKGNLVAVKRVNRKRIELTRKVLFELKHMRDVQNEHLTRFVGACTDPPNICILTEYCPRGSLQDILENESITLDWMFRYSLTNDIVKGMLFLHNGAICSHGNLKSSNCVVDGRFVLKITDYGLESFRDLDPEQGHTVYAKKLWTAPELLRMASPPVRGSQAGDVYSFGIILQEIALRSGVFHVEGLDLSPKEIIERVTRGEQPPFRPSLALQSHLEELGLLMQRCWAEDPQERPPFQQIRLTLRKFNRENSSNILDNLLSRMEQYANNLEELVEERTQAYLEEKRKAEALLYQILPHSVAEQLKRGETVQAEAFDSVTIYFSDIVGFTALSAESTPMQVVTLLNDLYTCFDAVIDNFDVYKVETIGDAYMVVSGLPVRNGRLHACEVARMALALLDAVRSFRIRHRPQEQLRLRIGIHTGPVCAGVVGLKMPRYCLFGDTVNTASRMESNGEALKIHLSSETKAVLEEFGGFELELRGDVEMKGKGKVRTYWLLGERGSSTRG
Assay: Selectivity experiment: peptide mixture bound to GC-A expressed cell membrane fraction, MALDI-TOF-MS
Assay type: binding
Settings: 10 pmol/μl each, CHO/GC-A vs CHO host cell membrane fraction
Method: An albumin-coated membrane fraction (CHO/GC-A cells and CHO host cells) was obtained in the same manner as in Step 1. and Step 2. of Example 1.
The resulting suspension was centrifuged to obtain pellets. The resulting pellets were further washed with 500 μl of distilled water, and centrifugation was performed again to obtain a ligand-bound membrane fraction.
MALDI-TOF-MS measurement was made in the same manner as in Step 4. of Example 1.

interaction with GC-A receptors (judgement)	Substance
do not interact with GC-A receptors	angiotensin I (DRVYIHPFHL; Angiotensin-1; UniProt P01019 25-34, looked up)
do not interact with GC-A receptors	melanocyte-stimulating hormone [α-MSH]
do not interact with GC-A receptors	substance P
